Measurements as given in publication doi:10.1101/2025.09.23.678148 (bioRxiv, 2025).

B1: DNA with a single AAA core (dsDNA)
DNA 1: CAGTGAAAGTGCCCCTACCCAGCAC
DNA 2: GTGCTGGGTAGGGGCACTTTCACTG
B2: recombinant mouse SPOP (aa28-329) (domain or fragment, UniProt Q6ZWS8 28-329, looked up)
chain: KVVKFSYMWTINNFSFCREEMGEVIKSSTFSSGANDKLKWCLRVNPKGLDEESKDYLSLYLLLVSCPKSEVRAKFKFSILNAKGEETKAMESQRAYRFVQGKDWGFKKFIRRDFLLDEANGLLPDDKLTLFCEVSVVQDSVNISGQNTMNMVKVPECRLADELGGLWENSRFTDCCLCVAGQEFQAHKAILAARSPVFSAMFEHEMEESKKNRVEINDVEPEVFKEMMCFIYTGKAPNLDKMADDLLAAADKYALERLKVMCEDALCSNLSVENAAEILILADLHSADQLKTQAVDFINYHA
B3: Gbp2 promoter probe, single IRF motif (dsDNA)
DNA 1: CAGTGAAAGTGAAACTAAAAAGCAC
DNA 2: GTGCTTTTTAGTTTCACTTTCACTG
B4: Gbp2 probe, GAAA core and 5'-flanking AA mutated (dsDNA)
DNA 1: CAGTGCCCGTGCCCCTACCCAGCAC
DNA 2: GTGCTGGGTAGGGGCACGGGCACTG

Assays:
[1] = target: T1, IRF1 (mouse, UniProt P15314 1-329); test: EMSA
T1 sequence: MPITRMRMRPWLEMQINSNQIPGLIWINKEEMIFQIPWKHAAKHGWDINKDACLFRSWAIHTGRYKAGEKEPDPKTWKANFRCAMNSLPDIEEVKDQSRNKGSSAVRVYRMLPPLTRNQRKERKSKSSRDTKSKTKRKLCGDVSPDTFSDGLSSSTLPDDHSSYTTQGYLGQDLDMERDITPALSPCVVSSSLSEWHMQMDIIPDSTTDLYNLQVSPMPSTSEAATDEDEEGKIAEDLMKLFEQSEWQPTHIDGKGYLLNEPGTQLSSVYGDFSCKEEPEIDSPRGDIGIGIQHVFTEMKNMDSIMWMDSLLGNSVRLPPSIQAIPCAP

[2] = target: T2, recombinant full-length mouse IRF1 (mouse, UniProt P15314 1-329); test: native gel or EMSA
T2 sequence (looked up): T1 sequence

[3] = target: T3, IRF2 (mouse, UniProt P23906 1-349); test: EMSA
T3 sequence: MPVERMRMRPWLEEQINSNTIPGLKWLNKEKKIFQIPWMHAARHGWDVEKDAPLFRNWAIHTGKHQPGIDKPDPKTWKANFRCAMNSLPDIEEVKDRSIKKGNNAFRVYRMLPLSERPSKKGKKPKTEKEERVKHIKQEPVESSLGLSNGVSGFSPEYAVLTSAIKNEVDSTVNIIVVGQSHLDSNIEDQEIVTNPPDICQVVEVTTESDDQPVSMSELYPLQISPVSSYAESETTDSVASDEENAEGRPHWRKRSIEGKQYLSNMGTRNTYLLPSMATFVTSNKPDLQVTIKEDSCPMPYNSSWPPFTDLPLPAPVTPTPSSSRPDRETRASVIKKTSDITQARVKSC

[4] = target: SPOP (mouse, UniProt Q6ZWS8 28-329); test: EMSA
[5] = target: T4, IRF1;IRF2 (mouse;mouse, UniProt P15314;P23906 1-329;1-349, |); test: EMSA
T4 sequence 1: T1 sequence
T4 sequence 2: T3 sequence

[6] = target: IRF1;SPOP (mouse;mouse, UniProt P15314;Q6ZWS8 1-329;28-329, |); test: EMSA

| Binder | binding result [1] | binding result [2] | binding result [3] | binding result [4] | binding result [5] | binding result [6] |
| --- | --- | --- | --- | --- | --- | --- |
| B1 | no binding | – | – | – | – | – |
| B2 | – | binds | – | – | – | – |
| B3 | binds | – | binds | no binding | binds | binds |
| B4 | no binding | – | no binding | – | – | – |
